Where two headings read alike, the source gives them in different places.

Assay [1] has as its target importin-alpha (Homo sapiens) (UniProt P52292). Kind of assay: ITC. The settings on record: cited from earlier work.
Assay [2] has as its target mouse importin‐α paralog 2 (mImpα2) lacking the importin‐β‐binding (IBB) domain, residues 70–529 (mouse) (UniProt P52293). The experiment in a line: MST; Monolith NT.115; RED‐NHS‐labelled mImpα2 at 60 nM titrated against NLS peptide 250 μM–7.6 nM; 20 mM Tris–HCl, 127 mM NaCl, pH 8.0, 0.5% Tween‐20; one‐binding site and two‐binding site model fits; apparent.
Assay [3] concerns the target murine importin-α isoform 2 (mImpα2) lacking the importin-β-binding (IBB) domain (mouse) (UniProt P52293). The experiment in a line: MST; Monolith NT.115; RED-NHS-labelled mImpα2 at 60 nM titrated against a serial 1:1 dilution (250 µM-7.6 nM) of NLS peptide with 0.5% Tween-20; 20 mM Tris-HCl, 127 mM NaCl, pH 8.0; three repeats, mean ± SD; fitted with one-binding-site, two-binding-site and Hill models; apparent affinity.

In assay [4] the target is importin-alpha (Homo sapiens) (UniProt P52292). The settings on record: cited from earlier work.
Another assay addresses importin-beta (UniProt Q14974). The settings on record: cited from earlier work.

Sequence of importin-beta (Q14974 whole entry): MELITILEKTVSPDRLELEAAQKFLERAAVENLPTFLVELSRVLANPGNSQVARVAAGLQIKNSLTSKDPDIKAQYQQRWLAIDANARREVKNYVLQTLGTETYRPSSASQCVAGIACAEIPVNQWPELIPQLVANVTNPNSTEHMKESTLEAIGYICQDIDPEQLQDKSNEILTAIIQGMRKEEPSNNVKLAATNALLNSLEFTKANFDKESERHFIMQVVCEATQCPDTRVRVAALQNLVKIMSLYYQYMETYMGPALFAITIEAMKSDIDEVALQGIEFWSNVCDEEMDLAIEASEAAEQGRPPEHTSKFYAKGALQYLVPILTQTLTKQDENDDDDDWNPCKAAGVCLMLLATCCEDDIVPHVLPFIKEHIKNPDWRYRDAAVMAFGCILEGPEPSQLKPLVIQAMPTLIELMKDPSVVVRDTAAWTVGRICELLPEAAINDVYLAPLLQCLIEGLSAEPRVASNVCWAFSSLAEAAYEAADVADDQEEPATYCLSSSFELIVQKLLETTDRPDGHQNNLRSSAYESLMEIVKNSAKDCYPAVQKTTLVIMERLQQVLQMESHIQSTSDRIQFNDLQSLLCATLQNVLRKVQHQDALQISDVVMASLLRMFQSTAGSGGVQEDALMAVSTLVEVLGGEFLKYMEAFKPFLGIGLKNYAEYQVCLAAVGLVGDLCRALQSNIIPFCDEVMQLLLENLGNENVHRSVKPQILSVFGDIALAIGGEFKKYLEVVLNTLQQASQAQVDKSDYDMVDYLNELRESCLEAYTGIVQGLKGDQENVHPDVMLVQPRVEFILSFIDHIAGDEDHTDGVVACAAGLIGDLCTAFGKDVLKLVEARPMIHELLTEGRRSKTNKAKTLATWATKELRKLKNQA

On to TAF8 NLS 297-310 (from UniProt Q7Z7C8), for which the Kd in assay [1] is 10.4 µM. In the case of “TAF8 NLS peptide (TAF8 residues 297–305, …)”, in assay [2], the KD1 (site 1, two‐binding site model) was 1 µM and the KD2 (site 2, two‐binding site model) is 1 µM. Take TAF8 NLS peptide (…, residues 297-305): the Kd in assay [3] stood at 1210 nM. In the case of “importin-alpha IBB domain IBB (from UniProt P52292)”, the Kd in assay [4] was 14 µM; in the assay with importin-beta, 10 nM.

The record behind these values is PMC12375970, “Probing the extent of importin‐α targeting of the TAF8 NLS by eliminating its cationic net‐charge” (Protein Science : A Publication of the Protein Society, 2025).
